# T1: Pituitary Adenylate Cyclase-Activating Polypeptide 38 (PACAP38) (Homo sapiens, not fully specified; C-terminal lysine is amidated; N-terminally or C-terminally biotinylated in the HTRF binding assay and N-terminally biotinylated in the PC-12 cell binding assay)
# T1 construct: synthetic peptide (American Peptide; AnaSpec for biotinylated forms); also called human PACAP38; PACAP 1-38
# T1 peptide: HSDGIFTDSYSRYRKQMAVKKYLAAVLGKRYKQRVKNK
# Biological target: T1, Pituitary Adenylate Cyclase-Activating …
# Assay: SPR ProteOn, Ab immobilized
binder,measurement,value
"Ab22 (antibody, V domains shown) VH: QEQLVESGGGLVQPEGSLTLTCTASGFDFSSNAMCWVRQAPGKGLEWIGSIYNADGKNYYAIWAKGRFTISRTSSTTVTLQMTSLTAADTATYFCARDFDLWGQGTLVTVSS VL: AAVLTQTPSPVSAAVGGTVTINCQSSQSVYDNDWLAWFQQKPGQPPKLLIYLTSTLASGVPSRFSGSGSGTQFTLTISGVQCDDAATYYCLGGYDEDGDTHVFGGGTEVVVKR",Kd,0.027 nM
same,koff,1e-05 s⁻¹
